# In patent US20260265800A1, “NEW FUCOSYLTRANSFERASES FOR IN VIVO SYNTHESIS OF LNFP-III” (DSM IP Assets B.V., priority 2022, published 2026):
# Numbering of substitutions follows the chain as printed. Values joined by “and” are separate entries in the source; they are usually repeats but may differ in a detail not shown here. Equal values may be shown once.
# B1: PglpF_SD3: promoter sequence, SEQ ID NO: 38 (nucleic acid)
# DNA: GCGGCACGCCTTGCAGATTACGGTTTGCCACACTTTTCATCCTTCTCCTGGTGACATAATCCACATCAATCGAAAATGTTAATAAATTTGTTGCGCGAATGATCTAACAAACATGCATCATGTACAATCAGATGGAATAAATGGCGCGATAACGCTCATTTTATGACGAGGCACACACATTTTAAGTTCGATATTTCTCGTTTTTGCTCGTTAACGATAAGTTTACAGCATGCCTACAAGCATCGTGGAGGTCCGTGACTTTCACGCATACAACAAACATTAACCAAGAACAAAACAGCT
# B2: PglpF_SD1: promoter sequence, SEQ ID NO: 39 (nucleic acid)
# DNA: B1 DNA with G288A, A289T, A290T, A292G
# B3: PmglB_54UTR: promoter sequence, SEQ ID NO: 18 (nucleic acid)
# DNA: TGCGTCGCCATTCTGTCGCAACACGCCAGAATGCGGCGGCGATCACTAACTCAACAAATCAGGCGATGTAACCGCTTTCAATCTGTGAGTGATTTCACAGTATCTTAACAATGTGATAGCTATGATTGCACCGTGCCTACAAGCATCGTGGAGGTCCGTGACTTTCACGCATACAACAAACATTAACAAAAACCGGAGATACC
# B4: FucT109: prior art α-1,3-fucosyltransferase from Bacteroides fragilis ATCC 25285, GenBank CAH09151.1, SEQ ID NO: 42 (protein, listed as Bacteroides fragilis)
# chain: MCDCLSIILLVKMKKIYLKFVDFWDGFDTISNFIVDALSIQYEVVLSNEPDYLFYSCFGTSHLEYDCIKIMFIGENIVPDFNVCDYAIGFNYIDFGDRYLRLPLYAIYDGFSNLQNKKIDVNKALDRKFCSIVVSNNKWADPIRETFFKLLSSYKKVDSGGRAWNNIGGPVDNKLDFISQYKFNIAFENSRVLGYTTEKIMEPMQVNSIPVYWGNPLVGKDFNVDSFVNAHDFDSLERLVEYIIELDSSKDKYLEMLEKPWLLDKTYLDWKQLLLNFINNIMMKSYKDAKYLVNYGHAGKYRNEQRFWGRCERKFKLQRIIEYYSQLFDRK
# B5: PglpA_16UTR: promoter sequence, SEQ ID NO: 36 (nucleic acid)
# DNA: GAAAACATTCATAAATTAAATGTGAATTGCCGCACACATTATTAAATAAGATTTACAAAATGTTCAAAATGACGCATGAAATCACGTTTCACTTTCGAATTATGAGCGAATATGCGCGATGCCTACAAGCATCGTGGAGGTCCGTGACTTTCACGCATACAACAAACATTAACCAAGGAGGAAACAGCT
# B6: CafD: prior art α-1,3-fucosyltransferase from Helicobacter hepaticus ATCC 51449, GenBank AAP76669.1, SEQ ID NO: 41 (protein, listed as Helicobacter hepaticus)
# chain: MKDDLVILHPDGGIASQIAFVALGLAFEQKGAKVKYDLSWFAEGAKGFWNPSNGYDKVYDITWDISKAFPALHIEIANEEEIERYKSKYLIDNDRVIDYAPPLYCYGYKGRIFHYLYAPFFAQSFAPKEAQDSHTPFAALLQEIESSPSPCGVHIRRGDLSQPHIVYGNPTSNEYFAKSIELMCLLHPQSSFYLFSDDLAFVKEQIVPLLKGKTYRICDVNNPSQGYLDLYLLSRCRNIIGSQGSMGEFAKVLSPHNPLLITPRYRNIFKEVENVMCVNWGESVQHPPLVCSAPPPLVSQLKRNAPLNSRLYKEKDNASA
# B7: PmglB_70UTR_SD8: promoter sequence, SEQ ID NO: 16 (nucleic acid)
# DNA: TGCGTCGCCATTCTGTCGCAACACGCCAGAATGCGGCGGCGATCACTAACTCAACAAATCAGGCGATGTAACCGCTTTCAATCTGTGAGTGATTTCACAGTATCTTAACAATGTGATAGCTATGATTGCACCGTGCCTACAAGCATCGTGGAGGTCCGTGACTTTCACGCATACAACAAACATTAACCAAGAGAAAAACAGCT
# B8: PmglB_70UTR_SD10: promoter sequence, SEQ ID NO: 17 (nucleic acid)
# DNA: B7 DNA with G191C, A192T, A195G
# B9: FutB: prior art α-1,3-fucosyltransferase from Helicobacter pylori, GenBank WP_000487430.1, SEQ ID NO: 6 (protein, listed as Helicobacter pylori)
# chain: MFQPLLDAFIESASIEKMVSKSPPPPLKIAVANWWGDEEIKEFKKSVLYFILSQRYAITLHQNPNESSDLVFSNPLGAARKILSYQNTKRVFYTGENESPNFNLFDYAIGFDELDFNDRYLRMPLYYAHLHYEAELVNDTTAPYKLKDNSLYALKKPSHHFKENHPNLCAVVNDESDLLKRGFASFVASNANAPMRNAFYDALNSIEPVTGGGSVRNTLGYKVGNKSEFLSQYKFNLCFENSQGYGYVTEKILDAYFSHTIPIYWGSPSVAKDFNPKSFVNVHDFNNFDEAIDYIKYLHTHPNAYLDMLYENPLNTLDGKAYFYQDLSFKKILDFFKTILENDTIYHNNPFIFYRDLHEPLISIDDLRVNYDDLRVNYDDLRVNYDDLRVNYDDLRVNYDDLRVNYDDLRVNYDDLRVNYDDLRVNYDDLRVNYDRLLQNASPLLELSQNTTFKIYRKAYQKSLPLLRTIRRWVKK
# B10: Plac_70UTR: promoter sequence, SEQ ID NO: 19 (nucleic acid)
# DNA: TGTGAGTTAGCTCACTCATTAGGCACCCCAGGCTTTACACTTTATGCTTCCGGCTCGTATGTTGTGTGGAATGCCTACAAGCATCGTGGAGGTCCGTGACTTTCACGCATACAACAAACATTAACCAAGGAGGAAACAGCT
# B11: Camp1: α-1,3-fucosyltransferase from Campylobacter sp., GenBank MBP3676691.1, SEQ ID NO: 1 (protein, listed as Campylobacter sp.)
# chain: MRKDLVIIRVDGGIASQIAFVALGLEFESRGYKVKYDLSWFDEFGNGFYNEQNGYDRSYNITFDIPKAFPDIKCEIASRDEIEIYRKKYFVDNEEVIELKPPLYVGGYLGRHFDFKYRDFFAKHFNPKEIQESDSECKILLDNILSNHSCGVHIRMGDLSKEHVVYGKPLSVEYFLKNIQLVLQIEPKSKFYFFSDDLEWVKKKVIPSLHSIEYEICNVNSVEKGYLDLYLLSRCKIIIASQGSMGKYAKMLALDSKTLLITPNKNAPMENMMMVNWADSYESFEEKQIQKPLSWRNKIRLKIYKKLRNKLLQKGIL
# Columns and labels:
# β-galactosidase activity = conditions: LacZ assay, cited from earlier work; for % Activity relative to PglpF: PglpF as positive reference, a range indicates results from multiple assays
# LNnT = assay: Deep well assay: HMO profile of LNnT-producing strains expressing α-1,3-fucosyltransferases (HPLC); type: cell-based, Escherichia coli; conditions: for LNFP-III, % of total HMO molar (mM) content produced by each strain: lactose as substrate, FT copy nr as in table 7 (enzyme names in text: single copy)
# Method: Deep Well Assays in the current examples were performed as originally described to Lv et al (Bioprocess Biosyst Eng 20 (2016) 39:1737-1747) and optimized for the purposes of the current invention. More specifically, the strains disclosed in the present example were screened in 96 deep well plates using a 4-day protocol. During the first 24 hours, precultures were grown to high densities (OD600 up to 5) and subsequently transferred to a medium that allowed induction of gene expression and product formation.
# More specifically, during day 1, fresh precultures were prepared using a basal minimal medium (BMM) (pH 7.0) supplemented with magnesium sulphate (0.12 g/L), thiamine (0.004 g/L) and glucose (5.5 g/L). Basal Minimal medium had the following composition: NaOH (1 g/L), KOH (2.5 g/L), KHzPO4 (7 g/L), NH&HzPO4 (7 g/L), Citric acid (0.5 g/l), trace mineral solution (5 mL/L). The trace mineral stock solution contained; ZnSO~*7H~O 0.82 g/L, Citric acid 20 g/L, Mn$04*H&O 0.98 g/L, FeSO4*7H&O 3.925 g/L, CuSO4*5H~O 0.2 g/L. The pH of the Basal Minimal Medium was adjusted to 7.0 with 5 N NaOH and autoclaved. The precultures were incubated for 24 hours at 34° C. and 1000 rpm shaking and then further transferred to 0.75 ml of a new BMM (pH 7,5) to start the main culture. The new BMM was supplemented with magnesium sulphate (0.12 g/L), thiamine (0.02 g/L), a bolus of glucose solution (0.1-0.15 g/L) and a bolus of lactose solution (5-20 g/L) Moreover, a 20% stock solution of sucrose (40-45 g/L) or maltodextrin (19-20 g/L) was provided as carbon source, accompanied by the addition of a specific hydrolytic enzyme, sucrose hydrolase or glycoamylase, respectively, so that glucose was released at a rate suitable for carbon-limited growth and similar to that of a typical fed-batch fermentation process. The main cultures were incubated for 72 hours at 28° C. and 1000 rpm shaking. For the analysis of total broth, the 96 well plates were boiled at 100° C., subsequently centrifuged, and finally the supernatants were analysed by HPLC.
# Genetically modified cells expressing individual α-1,3-fucosyltransferase enzymes were screened for their ability to produce the fucosylated HMO LNFP-III.
# Genetically modified strains expressing the six individual α-1,3-fucosyltransferases (table 5) were generated as described in the “Method” section. The cells were screened in the deep well assay setup as described in the “Method” section.
# The molar content of individual HMOs produced by the strains was measured by HPLC.
# The results of the LNFP-III producing cells are shown in table 7 as the fraction of the total molar HMO content (in percentage, %) produced by each strain.
# [1] = FT copy nr as in table 7, listed as FutT109
molecule,measurement,setting,value
B1,% Activity relative to PglpF,β-galactosidase activity,9%
same,Strength,β-galactosidase activity,"low (a regulatory element with an activity below 3,000 MU is considered weak)"
B2,% Activity relative to PglpF,β-galactosidase activity,5%
same,Strength,β-galactosidase activity,"low (a regulatory element with an activity below 3,000 MU is considered weak)"
B3,% Activity relative to PglpF,β-galactosidase activity,197%
same,Strength,β-galactosidase activity,"high (A regulatory element with an activity above 10,000 MU is considered strong)"
B4,"3-FL, % of total HMO molar (mM) content produced by each strain",LNnT; FT copy nr as in table 7,2.0 ± 1.8%
same,"LNFP-VI, % of total HMO molar (mM) content produced by each strain",LNnT; FT copy nr as in table 7,18%
same,"LNnT, % of total HMO molar (mM) content produced by each strain",LNnT; FT copy nr as in table 7,28.7 ± 1.6%
same,"pLNnH, % of total HMO molar (mM) content produced by each strain",LNnT; FT copy nr as in table 7,0.8 ± 0.7%
same,"LNDFH-III, % of total HMO molar (mM) content produced by each strain",LNnT; [1],24% and 23.9 ± 1.8%
same,"LNFP-VI, % of total HMO molar (mM) content produced by each strain",LNnT; [1],18.0 ± 2.6%
same,"LNFP-III, % of total HMO molar (mM) content produced by each strain",LNnT,26%
same,"LNFP-III, % of total HMO molar (mM) content produced by each strain",LNnT; listed as FutT109,26.6 ± 3.5%
B5,% Activity relative to PglpF,β-galactosidase activity,38-64%
same,Strength,β-galactosidase activity,middle (what is in between has intermediate strength)
B6,"3-FL, % of total HMO molar (mM) content produced by each strain",LNnT; FT copy nr as in table 7,0.0 ± 0.0%
same,"LNDFH-III, % of total HMO molar (mM) content produced by each strain",LNnT; FT copy nr as in table 7,0.0 ± 0.0%
same,"LNFP-VI, % of total HMO molar (mM) content produced by each strain",LNnT; FT copy nr as in table 7,0.0 ± 0.0%
same,"LNnT, % of total HMO molar (mM) content produced by each strain",LNnT; FT copy nr as in table 7,81.9 ± 1.3%
same,"pLNnH, % of total HMO molar (mM) content produced by each strain",LNnT; FT copy nr as in table 7,18.1 ± 1.3%
same,"LNFP-III, % of total HMO molar (mM) content produced by each strain",LNnT,0.0 ± 0.0%
same,production of fucosylated HMOs (fucosylation of LNnT or lactose),LNnT; single copy,does not produce any fucosylated HMOs
B7,% Activity relative to PglpF,β-galactosidase activity,291%
same,Strength,β-galactosidase activity,"high (A regulatory element with an activity above 10,000 MU is considered strong)"
B8,% Activity relative to PglpF,β-galactosidase activity,233-281%
same,Strength,β-galactosidase activity,"high (A regulatory element with an activity above 10,000 MU is considered strong)"
B9,"LNDFH-III, % of total HMO molar (mM) content produced by each strain",LNnT; FT copy nr as in table 7,0.0 ± 0.0%
same,"LNnT, % of total HMO molar (mM) content produced by each strain",LNnT; FT copy nr as in table 7,78.9 ± 0.4%
same,"pLNnH, % of total HMO molar (mM) content produced by each strain",LNnT; FT copy nr as in table 7,13.2 ± 0.2%
same,"LNFP-III, % of total HMO molar (mM) content produced by each strain",LNnT,6% and 6.2 ± 0.5%
B10,% Activity relative to PglpF,β-galactosidase activity,182-220%
same,Strength,β-galactosidase activity,"high (A regulatory element with an activity above 10,000 MU is considered strong)"
B11,"LNDFH-III, % of total HMO molar (mM) content produced by each strain",LNnT; FT copy nr as in table 7,do not produce any
